Data from paper PMC12861664 (2025).

Target: coxsackievirus B5 Faulkner strain, purified virus (wild type) (coxsackievirus B5 (CV-B5/Faulkner))
Assay: SPR

B1: decay accelerating factor (DAF) protein with tag (receptor)
chain: DCGLPPDVPNAQPALEGRTSFPEDTVITYKCEESFVKIPGEKDSVICLKGSQWSDIEEFCNRSCEVPTRLNSASLKQPYITQNYFPVGTVVEYECRPGYRREPSLSPKLTCLQNLKWSTAVEFCKKKSCPNPGEIRNGQIDVPGGILFGATISFSCNTGYKLFGSTSSFCLISGSSVQWSDPLPECREIYCPAPPQIDNGIIQGERDHYGYRQSVTYACNKGFTMIGEHSIYCTVNNDEGEWSGPPPECRGKSLTSKVPPTVQKPTTVNVPTTEVSPTSQKTTTKTTTPNAQATRSTPVSRTTKHFHETTPNKGSGTTS
B1 gave a Kd of 5.69 nM.
